From PMC4156907 (Molecular cell, 2014) come the findings set out here.

Read-outs that look alike come from different tables or passages of the source.

Data set [1] deals with T1, MDA5 (full length, FLAG-tagged) (UniProt Q9BYX4 1-1025).
T1 sequence (looked up): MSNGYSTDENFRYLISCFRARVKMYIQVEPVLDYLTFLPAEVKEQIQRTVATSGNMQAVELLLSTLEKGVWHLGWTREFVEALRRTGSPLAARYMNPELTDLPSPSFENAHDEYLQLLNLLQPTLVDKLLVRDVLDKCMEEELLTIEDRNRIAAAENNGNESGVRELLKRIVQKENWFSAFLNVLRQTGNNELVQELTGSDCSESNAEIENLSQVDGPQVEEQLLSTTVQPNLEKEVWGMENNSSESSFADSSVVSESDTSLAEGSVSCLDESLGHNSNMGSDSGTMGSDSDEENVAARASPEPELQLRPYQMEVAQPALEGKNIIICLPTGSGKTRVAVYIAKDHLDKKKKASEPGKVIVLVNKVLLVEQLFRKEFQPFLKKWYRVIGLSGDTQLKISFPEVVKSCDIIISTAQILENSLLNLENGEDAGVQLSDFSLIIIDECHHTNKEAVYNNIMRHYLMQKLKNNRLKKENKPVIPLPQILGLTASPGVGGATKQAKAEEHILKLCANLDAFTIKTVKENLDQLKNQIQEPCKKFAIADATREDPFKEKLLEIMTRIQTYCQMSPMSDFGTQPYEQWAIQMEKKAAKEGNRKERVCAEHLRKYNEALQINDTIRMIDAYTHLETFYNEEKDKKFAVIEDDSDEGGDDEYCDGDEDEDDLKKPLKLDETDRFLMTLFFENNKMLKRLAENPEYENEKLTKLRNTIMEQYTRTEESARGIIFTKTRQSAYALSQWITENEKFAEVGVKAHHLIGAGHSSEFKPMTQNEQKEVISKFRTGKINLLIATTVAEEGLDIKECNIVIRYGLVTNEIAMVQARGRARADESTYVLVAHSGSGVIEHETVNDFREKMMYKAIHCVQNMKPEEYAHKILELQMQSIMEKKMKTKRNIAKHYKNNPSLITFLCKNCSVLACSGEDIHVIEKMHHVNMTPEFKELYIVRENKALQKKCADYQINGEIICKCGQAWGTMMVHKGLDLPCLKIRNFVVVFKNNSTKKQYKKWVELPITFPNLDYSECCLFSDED
Briefly: co-IP.

A further data set concerns the target T2, LGP2 (UniProt Q96C10 1-678).
T2 sequence: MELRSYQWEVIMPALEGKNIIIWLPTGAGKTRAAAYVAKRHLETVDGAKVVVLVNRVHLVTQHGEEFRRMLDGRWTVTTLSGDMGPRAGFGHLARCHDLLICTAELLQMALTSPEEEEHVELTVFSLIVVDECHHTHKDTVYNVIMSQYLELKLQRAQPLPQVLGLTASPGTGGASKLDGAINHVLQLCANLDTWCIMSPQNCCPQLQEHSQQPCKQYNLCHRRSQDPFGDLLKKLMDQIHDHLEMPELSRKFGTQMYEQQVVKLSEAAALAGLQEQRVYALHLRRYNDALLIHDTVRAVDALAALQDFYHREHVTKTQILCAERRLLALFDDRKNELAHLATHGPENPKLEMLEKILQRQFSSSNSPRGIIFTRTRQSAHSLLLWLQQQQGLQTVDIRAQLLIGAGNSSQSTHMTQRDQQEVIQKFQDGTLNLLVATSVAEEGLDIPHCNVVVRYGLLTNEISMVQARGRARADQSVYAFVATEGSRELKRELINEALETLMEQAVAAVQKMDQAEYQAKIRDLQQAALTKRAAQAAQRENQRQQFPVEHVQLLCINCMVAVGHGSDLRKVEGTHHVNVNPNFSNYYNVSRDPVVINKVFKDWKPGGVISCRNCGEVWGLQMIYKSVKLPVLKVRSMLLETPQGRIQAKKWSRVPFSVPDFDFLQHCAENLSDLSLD
Description: single-molecule TIRF.

Data set [2] deals with T3, MDA5-C (UniProt Q9BYX4 295-1025).
T3 sequence: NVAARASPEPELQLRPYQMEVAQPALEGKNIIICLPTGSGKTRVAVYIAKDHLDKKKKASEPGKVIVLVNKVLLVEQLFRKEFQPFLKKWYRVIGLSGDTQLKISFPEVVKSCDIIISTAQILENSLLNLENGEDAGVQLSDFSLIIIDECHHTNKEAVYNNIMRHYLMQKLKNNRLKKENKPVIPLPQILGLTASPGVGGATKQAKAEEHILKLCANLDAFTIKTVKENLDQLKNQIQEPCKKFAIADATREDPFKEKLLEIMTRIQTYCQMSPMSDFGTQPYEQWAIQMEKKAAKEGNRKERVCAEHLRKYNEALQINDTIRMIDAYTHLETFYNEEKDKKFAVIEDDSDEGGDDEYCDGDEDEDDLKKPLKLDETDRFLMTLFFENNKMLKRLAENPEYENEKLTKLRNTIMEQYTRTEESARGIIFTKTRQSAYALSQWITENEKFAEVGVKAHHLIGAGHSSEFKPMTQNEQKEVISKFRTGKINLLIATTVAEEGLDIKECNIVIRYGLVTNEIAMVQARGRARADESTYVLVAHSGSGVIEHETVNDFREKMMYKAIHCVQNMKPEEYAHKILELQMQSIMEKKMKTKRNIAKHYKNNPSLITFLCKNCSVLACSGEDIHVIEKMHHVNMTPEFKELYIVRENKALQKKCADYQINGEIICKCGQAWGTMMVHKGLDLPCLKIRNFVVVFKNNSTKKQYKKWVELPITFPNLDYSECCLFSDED
Briefly: single-molecule TIRF.

Data set [3] concerns the target T3, MDA5-C. Description: single-molecule TIRF. The source holds these as a separate data set.

B1: LGP2 (FLAG-tagged) (natural protein, UniProt Q96C10 1-678, looked up)
chain: MELRSYQWEVIMPALEGKNIIIWLPTGAGKTRAAAYVAKRHLETVDGAKVVVLVNRVHLVTQHGEEFRRMLDGRWTVTTLSGDMGPRAGFGHLARCHDLLICTAELLQMALTSPEEEEHVELTVFSLIVVDECHHTHKDTVYNVIMSQYLELKLQRAQPLPQVLGLTASPGTGGASKLDGAINHVLQLCANLDTWCIMSPQNCCPQLQEHSQQPCKQYNLCHRRSQDPFGDLLKKLMDQIHDHLEMPELSRKFGTQMYEQQVVKLSEAAALAGLQEQRVYALHLRRYNDALLIHDTVRAVDALAALQDFYHREHVTKTQILCAERRLLALFDDRKNELAHLATHGPENPKLEMLEKILQRQFSSSNSPRGIIFTRTRQSAHSLLLWLQQQQGLQTVDIRAQLLIGAGNSSQSTHMTQRDQQEVIQKFQDGTLNLLVATSVAEEGLDIPHCNVVVRYGLLTNEISMVQARGRARADQSVYAFVATEGSRELKRELINEALETLMEQAVAAVQKMDQAEYQAKIRDLQQAALTKRAAQAAQRENQRQQFPVEHVQLLCINCMVAVGHGSDLRKVEGTHHVNVNPNFSNYYNVSRDPVVINKVFKDWKPGGVISCRNCGEVWGLQMIYKSVKLPVLKVRSMLLETPQGRIQAKKWSRVPFSVPDFDFLQHCAENLSDLSLD
As for B1, in data set [1], the “fold increase of co-precipitated LGP2 with poly(I:C) against without poly(I:C)” value was above 3 fold.

B2: 44bp dsRNA (dsRNA)
RNA 1: CGAGCAGACUGGCAAUCCGGAUCUCCCAGGCCCGGCUUUCAAGC
RNA 2: GCUUGAAAGCCGGGCCUGGGAGAUCCGGAUUGCCAGUCUGCUCG
modifications: strand 2 5' amino modifier C6 (5AmMC6)
B2: the Kd (usually the free concentration of one partner at which half of the binding sites on the other are occupied at equilibrium, for simple one-to-one binding) in the data set with LGP2 was 56.1 ± 10 nM; with MDA5-C [2], 326 ± 138 nM; with MDA5-C [3] it was 771 ± 207 nM.
